Measured values published in US20120172293A1 (Takeda / Millennium, published 2012).

Columns and labels:
[1] = molecular target: human Y2 receptor (human) (UniProt P49146); assay: cell-based or functional assay
[2] = molecular target: human Y2 receptor (human) (UniProt P49146); assay: RBA: displacement of [125I]-PYY from hY2R/CHO membranes

Chain of human Y2 receptor (human) (P49146 whole entry): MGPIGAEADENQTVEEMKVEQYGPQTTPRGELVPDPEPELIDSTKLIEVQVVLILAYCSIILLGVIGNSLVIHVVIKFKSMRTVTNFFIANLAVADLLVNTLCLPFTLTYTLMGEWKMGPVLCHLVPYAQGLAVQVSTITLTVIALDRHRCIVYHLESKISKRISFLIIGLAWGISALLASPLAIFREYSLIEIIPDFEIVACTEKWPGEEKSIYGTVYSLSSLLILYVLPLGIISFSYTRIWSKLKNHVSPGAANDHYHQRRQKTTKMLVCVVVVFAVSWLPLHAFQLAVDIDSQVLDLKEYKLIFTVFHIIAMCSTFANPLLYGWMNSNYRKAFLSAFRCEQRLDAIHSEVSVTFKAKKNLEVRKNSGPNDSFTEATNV

Substance	GBA EC50 Ratio ([35S]GTPγS binding) (EC50 compound/EC50 PYY(3-36)) [1]	IC50 Ratio (IC50 compound/IC50 PYY(3-36)) [2]
(3-carboxypropyl)carbamoyl-[D-Pro24, Pya(4)26, Cha27,36, Aib28,31, Lys30]-PYY(23-36) (peptide)	0.97	1.2
Ac-[D-Pro24, Pya(4)26, Cha27,36, Aib28,31, Hse30]-PYY(23-36) (peptide)	5.7	5.8
Ac-[D-Pro24, Pya(4)26, Cha27, Aib28,31, Lys30, Phe(3Me)36]-PYY(23-36) (peptide)	1.2	0.91
3-Carboxypropionyl-[D-Pro24, Pya(4)26, Cha27,36, Aib28,31, Lys30]-PYY(23-36) (peptide)	1.2	0.96
[(1S)-1-carboxy-2-hydroxyethyl]carbamoyl-[D-Pro24, Pya(4)26, Cha27,36, Aib28,31, Lys30]-PYY(23-36) (peptide)	1.3	0.52
Ac-[D-Pro24, Pya(4)26, Cha27,36, Iva28, Lys30, D-Iva31]-PYY(23-36) (peptide)	0.67	0.36
Ac-[D-Pro24, Pya(4)26, Cha27,36, Aib28,31, Orn30]-PYY(23-36) (peptide)	0.83	1.5
Ac-[D-Pro24, Pya(4)26, Nal(2)27, Aib28,31, Lys30, Cha36]-PYY(23-36) (peptide)	4	7.2
4-Pyridinecarbonyl-[D-Hyp24, Iva25, Pya(4)26, Cha27,36, Leu(Me)28, Lys30, Aib31]-PYY(23-36) (peptide)	1.6	0.93
(2-amino-2-oxoethyl)carbamoyl-[D-Pro24, Pya(4)26, Cha27,36, Aib28,31, Lys30]-PYY(23-36) (peptide)	0.74	1.2
(5-carboxypentyl)carbamoyl-[D-Pro24, Pya(4)26, Cha27,36, Aib28,31, Lys30]-PYY(23-36) (peptide)	1.5	1.2
Isobutanoyl-[D-Pro24, Pya(4)26, Cha27,36, Aib28,31, Lys30]-PYY(23-36) (peptide)	0.89	0.79

Continued, values first:

GBA EC50 Ratio ([35S]GTPγS binding) (EC50 compound/EC50 PYY(3-36)) [1]	IC50 Ratio (IC50 compound/IC50 PYY(3-36)) [2]	Substance
0.71	1.1	(Tetrahydro-2H-pyran-4-yl)carbonyl-[D-Pro24, Pya(4)26, Cha27,36, Aib28,31, Lys30]-PYY(23-36) (peptide)
2.6	1.7	Ac-[D-Pro24, Pya(4)26, Cha27,36, D-Iva28, Lys30, Aib31]-PYY(23-36) (peptide)
1.5	1.2	Ac-[D-Pro24, Ala(4Pip)26, Cha27,36, Aib28,31, Lys30]-PYY(23-36) (peptide)
1	0.86	Ac-[D-Hyp24, Iva25,28, Pya(4)26, Cha27,36, Lys30, Aib31]-PYY(23-36) (peptide)
1	0.31	Ac-[D-Pro24, Pya(4)26, Cha27,36, Iva28,31, Lys30]-PYY(23-36) (peptide)
1.1	3.4	Ac-[D-Pro24, Pya(4)26, Cha27,36, D-Iva28, Lys30, Iva31]-PYY(23-36) (peptide)
